Data published in paper PMC3900769 (Journal of molecular biology, 2009).
Values joined by “and” are separate entries in the source; they are usually repeats but may differ in a detail not shown here. Equal values may be shown once.

Tests used:
[1] = target: HPV11 E6 4C/4S separated from the MBP tag (human papillomavirus type 11) (UniProt P04019); assay: SEC
[2] = target: HPV11 MBP-E6 4C/4S (human papillomavirus type 11) (UniProt P04019); assay: SEC
[3] = target: E6AP peptide (Homo sapiens) (UniProt Q05086); assay: SPR; details: cited from earlier work
E6AP peptide (Homo sapiens), sequence (Q05086 whole entry): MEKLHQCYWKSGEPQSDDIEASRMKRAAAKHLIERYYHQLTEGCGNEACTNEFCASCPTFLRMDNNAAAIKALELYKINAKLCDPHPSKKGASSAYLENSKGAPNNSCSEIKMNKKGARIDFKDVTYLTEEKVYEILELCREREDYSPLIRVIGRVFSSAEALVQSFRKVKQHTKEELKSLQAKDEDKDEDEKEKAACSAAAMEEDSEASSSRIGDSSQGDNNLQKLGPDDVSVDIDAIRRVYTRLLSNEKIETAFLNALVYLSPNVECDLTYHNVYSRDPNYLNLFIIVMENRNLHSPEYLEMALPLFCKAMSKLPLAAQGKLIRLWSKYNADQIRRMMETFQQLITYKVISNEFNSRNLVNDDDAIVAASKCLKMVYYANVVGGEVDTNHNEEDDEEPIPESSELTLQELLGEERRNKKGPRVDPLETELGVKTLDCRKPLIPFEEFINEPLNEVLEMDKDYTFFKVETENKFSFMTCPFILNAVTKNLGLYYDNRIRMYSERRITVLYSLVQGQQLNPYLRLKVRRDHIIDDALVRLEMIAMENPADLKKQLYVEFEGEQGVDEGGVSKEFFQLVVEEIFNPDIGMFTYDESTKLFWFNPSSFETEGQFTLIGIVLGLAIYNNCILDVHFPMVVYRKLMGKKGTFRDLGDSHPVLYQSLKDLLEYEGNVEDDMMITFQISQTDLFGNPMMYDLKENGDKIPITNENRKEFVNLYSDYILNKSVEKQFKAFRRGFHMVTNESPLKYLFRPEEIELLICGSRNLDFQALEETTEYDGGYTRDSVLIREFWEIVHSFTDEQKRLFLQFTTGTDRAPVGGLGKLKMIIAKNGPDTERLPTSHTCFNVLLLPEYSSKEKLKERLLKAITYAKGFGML

SEC = target: the molecule itself; assay: SEC

In the case of “HPV11 E6 4C/4S separated from the MBP tag (from UniProt P04019 1-150) (natural protein)”, the stoichiometry N [1] is reported as 3 and 2.

For “HPV11 MBP-E6 4C/4S (from UniProt P04019 1-150) (natural protein)”, the stoichiometry N [2] was 2 and 3.

For HPV18 E6 (from UniProt P06463), the Kd [3] is listed as 30 µM.

B1: wild-type BPV1 MBP-E6 (natural protein)
chain: MDLKPFARTNPFSGLDCLWCREPLTEVDAFRCMVKDFHVVIREGCRYGACTICLENCLATERRLWQGVPVTGEEAELLHGKTLDRLCIRCCYCGGKLTKNEKHRHVLFNEPFCKTRANIIRGRCYDCCRHGSRSKYP
B1: binds (SEC).

B2: wild-type HPV11 MBP-E6 (natural protein)
chain: MESKDASTSATSIDQLCKTFNLSLHTLQIQCVFCRNALTTAEIYAYAYKNLKVVWRDNFPFAACACCLELQGKINQYRHFNYAAYAPTVEEETNEDILKVLIRCYLCHKPLCEIEKLKHILGKARFIKLNNQWKGRCLHCWTTCMEDLLP
For B2, the “stoichiometry N” value (SEC) was 2.
